According to patent publication US20260055182A1 (CIS BIOPHARMA, published 2026):

Tests used:
[1] = target: T1, L1-CAM recombinant protein (His Tag), human (human, UniProt P32004 20-1120); assay: SPR (Biacore 8K) as in Example 6, new batch of L1-CAM on the chip
T1 construct: Bought protein; also called CD171; human L1-CAM; not shown: His tag

[2] = target: T2, EGFR on HEK293 cells (human, UniProt P00533 25-1210); assay: cell microarray confirmation screen, negative control vector; cells of LV40 under EGFR are blank
T2 construct: whole, on cells; also called hEGFR
Experimental: (§1) Vectors encoding all interactions identified in the library screen, plus control vectors encoding CD20 (positive control) and EGFR (transfection and negative control), were arrayed and expressed in HEK293 cells on new slides. Confirmation screen slides and analyses were carried out as for the library screen either after cell fixation (n=2) or in the absence of fixation (n=1). […] Binding to target-expressing cells and non-transfected cells was again assessed by fluorescence imaging.

[3] = target: T3, human FcRn / FCGRT&B2M (human, UniProt P55899 24-297; P61769 21-119); assay: SPR (Biacore T200), pH 6.0, FcRn reversibly immobilised, antibody as analyte
T3 construct: Bought protein, reversibly immobilised for SPR at pH 6.0; also called neonatal receptor
Experimental: (§2) Effect on interaction with Fc receptor was analyzed by SPR [Instrument: Biacore T200 (C1q and FcRn) and 8K+ for (FcγR)]. Analysis temperature: 25° C., sample compartment: 12° C., Sensor chips: CM3 (C1q) and C1 (FcγR and FcRn).
(§3) Concentration range was adjusted to optimal window depending on results of qualitative analysis. The study was conducted by Biaffin GmbH & Co KG (Bielefeld, Germany).

[4] = target: T4, human FcyRI/CD64 (human, UniProt P12314 16-288, limits assumed); assay: SPR (Biacore 8K+), receptor reversibly immobilised, antibody as analyte
T4 construct: Bought protein, reversibly immobilised for SPR; also called human CD64
T4 sequence (P12314 16-288 limits assumed): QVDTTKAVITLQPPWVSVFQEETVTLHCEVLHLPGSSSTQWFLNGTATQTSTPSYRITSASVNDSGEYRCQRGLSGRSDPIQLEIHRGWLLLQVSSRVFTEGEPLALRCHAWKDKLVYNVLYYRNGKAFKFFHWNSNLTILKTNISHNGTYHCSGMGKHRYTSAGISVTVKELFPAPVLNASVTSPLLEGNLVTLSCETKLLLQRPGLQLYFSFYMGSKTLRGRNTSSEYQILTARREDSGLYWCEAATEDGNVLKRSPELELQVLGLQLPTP
Experimental: as §2, §3

[5] = target: T5, human FcyRIIA/CD32a (H167) (human, UniProt P12318 36-218); assay: SPR (Biacore 8K+), receptor reversibly immobilised, antibody as analyte; table token '-' at the 120th table, row 10, column 3
T5 construct: Bought protein, reversibly immobilised for SPR; also called human CD32a (H167)
T5 sequence (looked up): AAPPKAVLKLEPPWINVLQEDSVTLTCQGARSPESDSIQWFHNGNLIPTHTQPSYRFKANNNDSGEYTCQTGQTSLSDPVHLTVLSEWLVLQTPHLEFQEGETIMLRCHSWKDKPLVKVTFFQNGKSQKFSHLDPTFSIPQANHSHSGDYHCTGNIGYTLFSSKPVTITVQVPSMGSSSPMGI
Experimental: as §2

[6] = target: T6, CD20 on HEK293 cells (human, UniProt P11836 1-297); assay: cell microarray confirmation screen, control vector; cells of LV40 under CD20 are blank
T6 construct: whole, on cells; Positive control target for the Rituximab biosimilar; also called clone 0038
T6 sequence (looked up): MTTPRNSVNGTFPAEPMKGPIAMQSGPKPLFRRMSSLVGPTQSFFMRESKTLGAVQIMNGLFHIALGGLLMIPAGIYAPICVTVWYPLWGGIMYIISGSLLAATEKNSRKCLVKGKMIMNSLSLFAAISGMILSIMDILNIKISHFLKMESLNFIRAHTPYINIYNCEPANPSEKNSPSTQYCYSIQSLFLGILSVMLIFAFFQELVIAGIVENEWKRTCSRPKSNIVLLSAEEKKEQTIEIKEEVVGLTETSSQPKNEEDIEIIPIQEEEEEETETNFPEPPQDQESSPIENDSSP
Experimental: as §1

[7] = target: T3, human FcRn / FCGRT&B2M; assay: SPR; KD of LV40 over KD of Rituximab (control)
Experimental: as §2, §3

[8] = target: T4, human FcyRI/CD64; assay: SPR; KD of LV40 over KD of Rituximab (control)
Experimental: as §2, §3

[9] = target: human C1q purified protein (human, UniProt P02745 23-245; P02746 28-253; P02747 29-245); assay: SPR (Biacore T200), C1q reversibly immobilised, antibody as analyte; table token '-' at the 120th table, row 16, column 3
human C1q purified protein, sequence (P02745 23-245, chain 1 of 3): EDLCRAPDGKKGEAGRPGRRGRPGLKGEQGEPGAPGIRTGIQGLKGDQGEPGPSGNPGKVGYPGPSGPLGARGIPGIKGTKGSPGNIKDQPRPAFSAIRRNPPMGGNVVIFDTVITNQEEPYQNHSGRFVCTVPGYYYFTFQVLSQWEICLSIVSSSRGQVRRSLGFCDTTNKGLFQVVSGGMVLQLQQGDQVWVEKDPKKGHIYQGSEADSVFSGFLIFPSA
human C1q purified protein, sequence (P02746 28-253, chain 2 of 3): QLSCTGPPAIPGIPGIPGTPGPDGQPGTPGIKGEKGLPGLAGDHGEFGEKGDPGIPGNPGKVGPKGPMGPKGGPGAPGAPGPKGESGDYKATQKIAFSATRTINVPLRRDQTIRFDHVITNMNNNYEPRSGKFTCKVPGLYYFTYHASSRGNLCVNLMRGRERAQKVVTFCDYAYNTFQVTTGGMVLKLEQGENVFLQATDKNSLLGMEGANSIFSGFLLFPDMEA
human C1q purified protein, sequence (P02747 29-245, chain 3 of 3): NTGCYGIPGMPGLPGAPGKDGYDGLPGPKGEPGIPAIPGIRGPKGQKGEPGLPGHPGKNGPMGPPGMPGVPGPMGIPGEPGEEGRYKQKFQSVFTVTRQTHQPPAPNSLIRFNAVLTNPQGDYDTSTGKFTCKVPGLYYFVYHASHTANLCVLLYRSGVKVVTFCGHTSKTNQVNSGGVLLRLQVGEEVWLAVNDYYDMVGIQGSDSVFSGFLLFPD
Experimental: as §2

[10] = target: T7, human FcyRIIIA/CD16a (V176) (human, UniProt P08637 17-208); assay: SPR (Biacore 8K+), receptor reversibly immobilised, antibody as analyte; table token '-' at the 120th table, row 12, column 3
T7 construct: Bought protein, reversibly immobilised for SPR; also called human CD16a (V176)
T7 sequence (P08637 17-208 F176V limits assumed): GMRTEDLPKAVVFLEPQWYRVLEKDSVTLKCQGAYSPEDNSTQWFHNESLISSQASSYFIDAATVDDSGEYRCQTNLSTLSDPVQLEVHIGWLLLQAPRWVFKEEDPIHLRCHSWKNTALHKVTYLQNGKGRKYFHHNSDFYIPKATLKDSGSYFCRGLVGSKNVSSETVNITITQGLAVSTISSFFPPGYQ
Experimental: as §2

T1 sequence (P32004 20-1120 limits assumed): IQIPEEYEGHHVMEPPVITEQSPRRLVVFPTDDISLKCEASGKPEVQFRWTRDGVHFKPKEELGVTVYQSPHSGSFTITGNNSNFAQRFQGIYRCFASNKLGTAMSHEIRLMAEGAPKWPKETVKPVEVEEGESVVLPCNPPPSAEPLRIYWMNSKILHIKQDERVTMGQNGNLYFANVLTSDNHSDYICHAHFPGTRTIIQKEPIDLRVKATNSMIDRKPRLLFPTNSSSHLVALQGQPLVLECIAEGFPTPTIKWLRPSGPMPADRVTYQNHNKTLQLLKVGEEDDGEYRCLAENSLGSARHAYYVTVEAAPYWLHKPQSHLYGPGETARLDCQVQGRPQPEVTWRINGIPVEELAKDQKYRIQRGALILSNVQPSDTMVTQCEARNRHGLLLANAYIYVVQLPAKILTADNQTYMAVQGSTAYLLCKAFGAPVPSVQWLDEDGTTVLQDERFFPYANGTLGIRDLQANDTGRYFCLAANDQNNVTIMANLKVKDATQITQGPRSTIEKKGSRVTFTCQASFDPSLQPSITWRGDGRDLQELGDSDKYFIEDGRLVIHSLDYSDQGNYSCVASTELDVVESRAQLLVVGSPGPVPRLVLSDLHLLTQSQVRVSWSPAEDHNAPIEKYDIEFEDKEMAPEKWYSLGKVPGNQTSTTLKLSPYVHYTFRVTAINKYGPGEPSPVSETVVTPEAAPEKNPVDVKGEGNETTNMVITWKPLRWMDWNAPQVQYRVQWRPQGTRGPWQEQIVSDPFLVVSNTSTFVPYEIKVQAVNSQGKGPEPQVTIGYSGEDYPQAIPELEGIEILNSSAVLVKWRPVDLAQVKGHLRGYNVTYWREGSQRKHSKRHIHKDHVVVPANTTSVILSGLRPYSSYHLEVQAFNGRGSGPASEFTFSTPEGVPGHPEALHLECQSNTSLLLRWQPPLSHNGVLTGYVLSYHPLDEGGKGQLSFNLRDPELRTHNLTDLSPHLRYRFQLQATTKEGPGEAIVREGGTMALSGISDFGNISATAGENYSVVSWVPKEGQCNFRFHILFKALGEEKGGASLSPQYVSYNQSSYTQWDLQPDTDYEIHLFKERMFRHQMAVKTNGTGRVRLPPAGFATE

Kd [1]: 0.0644 nM
koff [1]: 0.000472 s⁻¹
kon [1]: 7.32e+06 M⁻¹ s⁻¹
binding result [2]: no binding (tested: 20 µg/mL)
Kd [3]: 459 nM
Kd [4]: 15.8 nM
binding result [5]: no binding
binding result [6]: no binding (tested: 20 µg/mL)
ratio KD (KD sample / KD control) [7]: 1.2
ratio KD (KD sample / KD control) [8]: 389
binding result [9]: no binding
binding result [10]: no binding
B1: huCE7 LV40 (antibody, human IgG1, kappa, L234A L235A, N297A)
heavy: QVQLVQSGAEVKKPGASVKVSCKASGYTFTGYFMHWVRQAPGQGLEWIGEINPSNARTNYNERFQGRVTLTVDKSISTAYMELSRLRSDDTAVYYCARDYYGTSYNFDYWGQGTLVTVSSASTKGPSVFPLAPSSKSTSGGTAALGCLVKDYFPEPVTVSWNSGALTSGVHTFPAVLQSSGLYSLSSVVTVPSSSLGTQTYICNVNHKPSNTKVDKKVEPKSCDKTHTCPPCPAPEAAGGPSVFLFPPKPKDTLMISRTPEVTCVVVDVSHEDPEVKFNWYVDGVEVHNAKTKPREEQYASTYRVVSVLPVLHQDWLNGKEYKCKVSNKALPASIEKTISKAKGQPREPQVYTLPPSREEMTKNQVSLTCLVKGFYPSDIAVEWESNGQPENNYKTTPPVLDSDGSFFLYSKLTVDKSRWQQGNVFSCSVMHEALHNHYTQKSLSLSPGK
light: DIQMTQSPSSLSASVGDRVTITCKANEDINARLAWYQQKPGKAPKLLISGATNLVTGVPSRFSGSGSGKDYTLTISSLQPEDFATYYCQQYYSTPFTFGQGTKLEIKRTVAAPSVFIFPPSDEQLKSGTASVVCLLNNFYPREAKVQWKVDNALQSGNSQESVTEQDSKDSTYSLSSTLTLSKADYEKHKVYACEVTHQGLSSPVTKSFNRGEC
notes: Variant 7AG (IgG1, N297A L234A L235A P331S) with HC WH33F, GH55A, TH307P and LC NL31A, WL92Y; also called huCE7 variant LV40; huCE7-variant40
